Test results published in the supplement of paper PMC11246515.
± gives the standard deviation of the averaged measurements.

Experiment: total protein half-life in vivo (active degradation + dilution); higher = more stable protein
[1] = E. coli NCM3722 delta-clpP, growth: N-lim chemostat, doubling time 6 h
[2] = E. coli NCM3722 delta-hslV, growth: N-lim chemostat, doubling time 6 h
[3] = E. coli NCM3722 delta-lon, growth: N-lim chemostat, doubling time 6 h
[4] = E. coli NCM3722 delta-smpB, growth: N-lim chemostat, doubling time 6 h
[5] = wild type E. coli NCM3722, growth: C-lim chemostat, doubling time 3 h
[6] = wild type E. coli NCM3722, growth: C-lim chemostat, doubling time 6 h
[7] = wild type E. coli NCM3722, growth: C-lim chemostat, doubling time 12 h
[8] = wild type E. coli NCM3722, growth: N-lim chemostat, doubling time 6 h
[9] = wild type E. coli NCM3722, growth: N-lim chemostat, doubling time 12 h
[10] = wild type E. coli NCM3722, growth: P-lim chemostat, doubling time 6 h
[11] = wild type E. coli NCM3722, growth: P-lim chemostat, doubling time 12 h
[12] = E. coli NCM3722 delta-clpP delta-lon delta-hslV, growth: N-lim chemostat, doubling time 6 h

| Sequence | total protein half-life in vivo [1] [h] | total protein half-life in vivo [2] [h] | total protein half-life in vivo [3] [h] | total protein half-life in vivo [4] [h] | total protein half-life in vivo [5] [h] | total protein half-life in vivo [6] [h] | total protein half-life in vivo [7] [h] | total protein half-life in vivo [8] [h] | total protein half-life in vivo [9] [h] | total protein half-life in vivo [10] [h] | total protein half-life in vivo [11] [h] | total protein half-life in vivo [12] [h] |
| --- | --- | --- | --- | --- | --- | --- | --- | --- | --- | --- | --- | --- |
| MERVSITERPDWREKAHEYGFNFHTMYGEPYWCEDAYYKLTLAQVEKLEEVTAELHQMCLKVVEKVIASDELMTKFRIPKHTWSFVRQSWLTHQPSLYSRLDLAWDGTGEPKLLENNADTPTSLYEAAFFQWIWLEDQLNAGNLPEGSDQFNSLQEKLIDRFVELREQYGFQLLHLTCCRDTVEDRGTIQYLQDCATEAEIATEFLYIDDIGLGEKGQFTDLQDQVISNLFKLYPWEFMLREMFSTKLEDAGVRWLEPAWKSIISNKALLPLLWEMFPNHPNLLPAYFAEDDHPQMEKYVVKPIFSREGANVSIIENGKTIEAAEGPYGEEGMIVQQFHPLPKFGDSYMLIGSWLVNDQPAGIGIREDRALITQDMSRFYPHIFVE [P0ADT5] | 4.7 ± 0.6 | 4.25 ± 0.46 | 4.93 ± 0.34 | 4.3 ± 0.17 | 3.13 ± 0.18 | 5.78 ± 1 | 9.63 ± 0.61 | 4.46 ± 0.15 | 8.2 ± 1 | 5.65 ± 0.24 | 11.5 ± 0.2 | – |
| MTEAMKITLSTQPADARWGEKATYSINNDGITLHLNGADDLGLIQRAARKIDGLGIKHVQLSGEGWDADRCWAFWQGYKAPKGTRKVVWPDLDDAQRQELDNRLMIIDWVRDTINAPAEELGPSQLAQRAVDLISNVAGDRVTYRITKGEDLREQGYMGLHTVGRGSERSPVLLALDYNPTGDKEAPVYACLVGKGITFDSGGYSIKQTAFMDSMKSDMGGAATVTGALAFAITRGLNKRVKLFLCCADNLISGNAFKLGDIITYRNGKKVEVMNTDAEGRLVLADGLIDASAQKPEMIIDAATLTGAAKTALGNDYHALFSFDDALAGRLLASAAQENEPFWRLPLAEFHRSQLPSNFAELNNTGSAAYPAGASTAAGFLSHFVENYQQGWLHIDCSATYRKAPVEQWSAGATGLGVRTIANLLTA | 5.46 ± 0.11 | 5.706 ± 0.054 | 5.758 ± 0.022 | 5.22 ± 0.19 | 3.45 ± 0.34 | 6.53 ± 0.15 | 10.4 ± 0.37 | 5.61 ± 0.15 | 10.4 ± 1.1 | 5.543 ± 0.044 | 12.5 ± 0.4 | 5.81 ± 0.29 |
| MLKIIRAGMYTTVQDGGRHGFRQSGISHCGALDMPALRIANLLVGNDANAPALEITLGQLTVEFETDGWFALTGAGCEARLDDNAVWTGWRLPMKAGQRLTLKRPQHGMRSYLAVAGGIDVPPVMGSCSTDLKVGIGGLEGRLLKDGDRLPIGKSKRDSMEAQGVKQLLWGNRIRALPGPEYHEFDRASQDAFWRSPWQLSSQSNRMGYRLQGQILKRTTDRELLSHGLLPGVVQVPHNGQPIVLMNDAQTTGGYPRIACIIEADMYHLAQIPLGQPIHFVQCSLEEALKARQDQQRYFEQLAWRLHNEN | 5.3 ± 0.29 | 5.076 ± 0.012 | 5.07 ± 0.35 | 4.88 ± 0.36 | 3.12 ± 0.1 | 5.73 ± 0.14 | 10.1 ± 0.82 | 5.25 ± 0.34 | 8.94 ± 0.26 | 5.79 ± 0.12 | 11.26 ± 0.079 | 5.37 ± 0.055 |
| MKGRLLDAVPLSSLTGVGAALSNKLAKINLHTVQDLLLHLPLRYEDRTHLYPIGELLPGVYATVEGEVLNCNISFGGRRMMTCQISDGSGILTMRFFNFSAAMKNSLAAGRRVLAYGEAKRGKYGAEMIHPEYRVQGDLSTPELQETLTPVYPTTEGVKQATLRKLTDQALDLLDTCAIEELLPPELSQGMMTLPEALRTLHRPPPTLQLSDLETGQHPAQRRLILEELLAHNLSMLALRAGAQRFHAQPLSANDTLKNKLLAALPFKPTGAQARVVAEIERDMALDVPMMRLVQGDVGSGKTLVAALAALRAIAHGKQVALMAPTELLAEQHANNFRNWFAPLGIEVGWLAGKQKGKARLAQQEAIASGQVQMIVGTHAIFQEQVQFNGLALVIIDEQHRFGVHQRLALWEKGQQQGFHPHQLIMTATPIPRTLAMTAYADLDTSVIDELPPGRTPVTTVAIPDTRRTDIIDRVHHACITEGRQAYWVCTLIEESELLEAQAAEATWEELKLALPELNVGLVHGRMKPAEKQAVMASFKQGELHLLVATTVIEVGVDVPNASLMIIENPERLGLAQLHQLRGRVGRGAVASHCVLLYKTPLSKTAQIRLQVLRDSNDGFVIAQKDLEIRGPGELLGTRQTGNAEFKVADLLRDQAMIPEVQRLARHIHERYPQQAKALIERWMPETERYSNA | 5.05 ± 0.14 | 5.74 ± 0.61 | 5.32 ± 0.16 | 5.01 ± 0.36 | – | 6.17 ± 0.47 | 10.5 ± 0.46 | 4.91 ± 0.11 | 8.73 ± 0.86 | 6.25 ± 0.072 | 11.3 ± 0.53 | 5.83 ± 0.22 |
| MNNNDLFQASRRRFLAQLGGLTVAGMLGPSLLTPRRATAAQAATDAVISKEGILTGSHWGAIRATVKDGRFVAAKPFELDKYPSKMIAGLPDHVHNAARIRYPMVRVDWLRKRHLSDTSQRGDNRFVRVSWDEALDMFYEELERVQKTHGPSALLTASGWQSTGMFHNASGMLAKAIALHGNSVGTGGDYSTGAAQVILPRVVGSMEVYEQQTSWPLVLQNSKTIVLWGSDLLKNQQANWWCPDHDVYEYYAQLKAKVAAGEIEVISIDPVVTSTHEYLGREHVKHIAVNPQTDVPLQLALAHTLYSENLYDKNFLANYCVGFEQFLPYLLGEKDGQPKDAAWAEKLTGIDAETIRGLARQMAANRTQIIAGWCVQRMQHGEQWAWMIVVLAAMLGQIGLPGGGFGFGWHYNGAGTPGRKGVILSGFSGSTSIPPVHDNSDYKGYSSTIPIARFIDAILEPGKVINWNGKSVKLPPLKMCIFAGTNPFHRHQQINRIIEGLRKLETVIAIDNQWTSTCRFADIVLPATTQFERNDLDQYGNHSNRGIIAMKQVVPPQFEARNDFDIFRELCRRFNREEAFTEGLDEMGWLKRIWQEGVQQGKGRGVHLPAFDDFWNNKEYVEFDHPQMFVRHQAFREDPDLEPLGTPSGLIEIYSKTIADMNYDDCQGHPMWFEKIERSHGGPGSQKYPLHLQSVHPDFRLHSQLCESETLRQQYTVAGKEPVFINPQDASARGIRNGDVVRVFNARGQVLAGAVVSDRYAPGVARIHEGAWYDPDKGGEPGALCKYGNPNVLTIDIGTSQLAQATSAHTTLVEIEKYNGTVEQVTAFNGPVEMVAQCEYVPASQVKS | – | – | 7.84 | 5.54 | 3.3 ± 0.074 | 4.64 ± 2.7 | 13.2 ± 1.9 | 7.02 ± 0.15 | 14 ± 1.4 | 6.85 ± 0.67 | 12.6 ± 0.63 | – |
| MSTLRLLISDSYDPWFNLAVEECIFRQMPATQRVLFLWRNADTVVIGRAQNPWKECNTRRMEEDNVRLARRSSGGGAVFHDLGNTCFTFMAGKPEYDKTISTSIVLNALNALGVSAEASGRNDLVVKTVEGDRKVSGSAYRETKDRGFHHGTLLLNADLSRLANYLNPDKKKLAAKGITSVRSRVTNLTELLPGITHEQVCEAITEAFFAHYGERVEAEIISPNKTPDLPNFAETFARQSSWEWNFGQAPAFSHLLDERFTWGGVELHFDVEKGHITRAQVFTDSLNPAPLEALAGRLQGCLYRADMLQQECEALLVDFPEQEKELRELSAWMAGAVR | – | 4.05 ± 0.39 | 5.74 ± 1.3 | 4.227 ± 0.0072 | 2.93 ± 0.24 | 5.88 ± 0.59 | 11 ± 0.56 | 4.8 ± 0.4 | 7.13 ± 0.78 | 5.78 ± 0.2 | 11.9 ± 0.67 | 4.61 ± 0.64 |
